The source of these data is publication PMC6271157, “High Efficiency Acetylcholinesterase Immobilization on DNA Aptamer Modified Surfaces”.

Data set [1] deals with T1, acetylcholinesterase (AChE) (electric eel, UniProt O42275 24-633). As to the kind of experiment: ELONA; low ionic strength ~0.02 M, no NaCl, 4 mM MgCl2; 8 mM Na2HPO4, 2 mM NaH2PO4, 2.7 mM KCl, 137 mM NaCl, 4 mM MgCl2, pH 7.4, room temperature, 2 h; wells coated with 10 nM AChE, blocked with 1% BSA; washes with 0.05% Tween 20. The settings on record: protein: native; label: 5'-biotin, detected by streptavidin-HRP.
T1 sequence (O42275 24-633): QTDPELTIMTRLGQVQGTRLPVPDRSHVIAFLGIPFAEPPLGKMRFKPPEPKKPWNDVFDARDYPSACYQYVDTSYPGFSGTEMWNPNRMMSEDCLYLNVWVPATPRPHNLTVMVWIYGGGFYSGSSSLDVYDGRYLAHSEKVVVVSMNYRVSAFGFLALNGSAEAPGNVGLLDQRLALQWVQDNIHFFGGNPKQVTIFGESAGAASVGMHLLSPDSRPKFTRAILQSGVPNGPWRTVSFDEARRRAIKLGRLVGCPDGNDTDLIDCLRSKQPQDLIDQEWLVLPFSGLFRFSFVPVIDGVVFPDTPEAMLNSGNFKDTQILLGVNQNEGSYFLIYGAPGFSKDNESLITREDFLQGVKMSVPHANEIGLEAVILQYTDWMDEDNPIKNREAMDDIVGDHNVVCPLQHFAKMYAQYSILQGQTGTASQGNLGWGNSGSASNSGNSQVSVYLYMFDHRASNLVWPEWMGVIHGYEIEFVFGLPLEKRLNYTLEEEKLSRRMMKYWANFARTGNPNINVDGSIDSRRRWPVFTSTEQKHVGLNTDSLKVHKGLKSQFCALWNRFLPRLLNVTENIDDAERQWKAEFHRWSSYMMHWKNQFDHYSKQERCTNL

The target in data set [2] is T1, acetylcholinesterase (AChE). As to the kind of experiment: ELONA; selection buffer, ionic strength ~0.15 M, 137 mM NaCl, 4 mM MgCl2; 8 mM Na2HPO4, 2 mM NaH2PO4, 2.7 mM KCl, 137 mM NaCl, 4 mM MgCl2, pH 7.4, room temperature, 2 h; wells coated with 10 nM AChE, blocked with 1% BSA; washes with 0.05% Tween 20. The note with it: protein: native; label: 5'-biotin, detected by streptavidin-HRP.

B1: R15/19 (also R15/C19) (ssDNA)
DNA: AAGCATCCGCTGGTTGACTGTAGCTCTGGCAGACGTAGTGTGAAGGTACCAGCTATTGGGATCTTGGACCCTGCGAA
modifications: 5'-biotin (ELONA)
On to B1, for which the Kd in data set [1] is 0.243 ± 0.047 nM; in data set [2], 0.157 ± 0.042 nM.
